Experimental data from publication PMC3898768, “The TBC/RabGAP Armus Coordinates Rac1 and Rab7 Functions during Autophagy” (Developmental Cell, 2013).
Numbering of substitutions follows the chain as printed. Names may count otherwise. Values belong to the binder of their own block, whether it stands above or below them.

Tests used:
[1] = molecular target: T1, cleaved active Rac1 (Rac^Q61L) (UniProt P63000 1-192, Q61L); experiment: pull-down; purified proteins: GST-Armus 1-550 incubated with cleaved Rac Q61L with or without increasing amounts of MBP-LC3 (molar ratios shown in the figure); probed for Rac1 or LC3; details: both partners purified
[2] = molecular target: T1, cleaved active Rac1 (Rac^Q61L); experiment: pull-down; purified proteins: GST fusion protein (GST-LC3, or GST-Armus 1-550 wild-type or mutants) incubated with cleaved Rac Q61L; probed for Rac1; details: both partners purified

binding result [1]: binds
B1: GST-Armus 1-550 wild-type (domain or fragment)
chain: MEGAGENAPESSSSAPGSEESARDPQVPPPEEESGDCARSLEAVPKKLCGYLSKFGGKGPIRGWKSRWFFYDERKCQLYYSRTAQDANPLDSIDLSSAVFDCKADAEEGIFEIKTPSRVITLKAATKQAMLYWLQQLQMKRWEFHNSPPAPPATPDAALAGNGPVLHLELGQEEAELEEFLCPVKTPPGLVGVAAALQPFPALQNISLKHLGTEIQNTMHNIRGNKQAQGTGHEPPGEDSPQSGEPQREEQPLASDASTPGREPEDSPKPAPKPSLTISFAQKAKRQNNTFPFFSEGITRNRTAQEKVAALEQQVLMLTKELKSQKELVKILHKALEAAQQEKRASSAYLAAAEDKDRLELVRHKVRQIAELGRRVEALEQERESLAHTASLREQQVQELQQHVQLLMDKNHAKQQVICKLSEKVTQDFTHPPDQSPLRPDAANRDFLSQQGKIEHLKDDMEAYRTQNCFLNSEIHQVTKIWRKVAEKEKALLTKCAYLQARNCQVESKYLAGLRRLQEALGDEASECSELLRQLVQEALQWEAGEASSD
notes: Armus (TBC1D2A, isoform 1; UniProt Q9BYX2-1), residues 1-550; also called GST-Armus_(1–550) wild-type (WT); source: 'purified proteins'

binding result [2]: binds
B2: GST-Armus 1-550 W142A,Y510A (domain or fragment)
chain: B1 chain with W142A, Y510A
notes: Armus (TBC1D2A, isoform 1; UniProt Q9BYX2-1), residues 1-550, double point mutant; also called Armus^W142A,Y510A; source: 'purified proteins'
